Patent US20150353909

Tests used:
[1] = target: K48-tetraubiquitin chains, P0CG48
[2] = target: K63-tetraubiquitin chains, P0CG48
[3] = target: purified recombinant linear UB trimers
[4] = target: purified recombinant linear UB dimers
[5] = target: purified recombinant linear UB tetramers
[6] = target: HA3-UBQ-GST [GST: P08515]
[7] = target: T1, HA3-RUB-GST, Q9SHE7
T1 chain: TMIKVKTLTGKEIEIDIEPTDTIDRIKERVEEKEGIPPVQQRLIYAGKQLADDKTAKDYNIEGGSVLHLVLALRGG

[8] = target: HA3-SUMO-GST, P55852

Chain of K63-tetraubiquitin chains, P0CG48 (P0CG48 whole entry, looked up): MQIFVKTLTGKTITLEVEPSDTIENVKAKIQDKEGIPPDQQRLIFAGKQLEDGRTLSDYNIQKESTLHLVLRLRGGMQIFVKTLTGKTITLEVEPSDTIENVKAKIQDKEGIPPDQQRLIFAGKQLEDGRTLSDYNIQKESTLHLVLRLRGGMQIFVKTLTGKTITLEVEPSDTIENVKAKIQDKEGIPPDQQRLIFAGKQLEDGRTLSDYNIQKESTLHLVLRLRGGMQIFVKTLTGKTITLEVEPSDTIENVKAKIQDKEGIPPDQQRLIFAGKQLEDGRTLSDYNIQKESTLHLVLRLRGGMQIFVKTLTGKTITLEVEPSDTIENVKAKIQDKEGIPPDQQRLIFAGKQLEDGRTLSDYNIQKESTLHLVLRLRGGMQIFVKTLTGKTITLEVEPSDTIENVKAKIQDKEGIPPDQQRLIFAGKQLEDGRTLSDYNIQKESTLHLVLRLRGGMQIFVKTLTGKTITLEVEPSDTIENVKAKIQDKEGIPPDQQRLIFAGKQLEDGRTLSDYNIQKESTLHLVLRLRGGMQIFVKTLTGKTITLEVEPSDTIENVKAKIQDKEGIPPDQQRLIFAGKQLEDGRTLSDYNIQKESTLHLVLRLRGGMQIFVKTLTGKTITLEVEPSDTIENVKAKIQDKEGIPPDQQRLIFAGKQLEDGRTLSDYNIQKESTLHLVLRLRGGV
Chain of K48-tetraubiquitin chains, P0CG48 (P0CG48 whole entry, looked up): as above

Row | Protein | cleavage [1] | cleavage [2] | cleavage activity [1] | cleavage activity [2] | linear UB polymer cleavage activity [3] | linear UB polymer cleavage activity [4] | linear UB polymer cleavage activity [5] | also measured
1 | OTU10-NΔ1-125 (protein) EWIGNDNDQDGRSDDSVNVFSCSSPSDTDEYVYSWESDQCDADGEFGRRLNQMVPIPYIPKINGEIPPEEEAVSDHERLRNRLEMFDFTEVKVPGDGNCQFRALADQLYKTADRHKHVRRQIVKQLKSRPDSYQGYVPMDFSDYLRKMSRSGEWGDHVTLQAAADAYRVKIVVLTSFKDTCYIEILPTSQESKGVIFLSFWAEVHYNAIYLNRDTSETELQRKRKWWRFGN | comparable to that catalyzed by the corresponding wild-type proteins | comparable to that catalyzed by the corresponding wild-type proteins |  |  |  |  |  | 
2 | OTU1-C92S (protein) MQNQIDMVKDEAEVAASISAIKGEEWGNCSSVEDQPSFQEEEAAKVPYVGDKEPLSSLAAEYQSGSPILLEKIKILDSQYIGIRRTRGDGNSFFRSFMFSYLEHILESQDRAEVDRIKVNVEKCRKTLQNLGYTDFTFEDFFALFLEQLDDILQGTEESISYDELVNRSRDQSVSDYIVMFFRFVTAGDIRTRADFFEPFITGLSNATVDQFCKSSVEPMGEESDHIHITALSDALGVAIRVVYLDRSSCDSGGVTVNHHDFVPVGITNEKDEEASAPFITLLYRPGHYDILYPKPSCKVSDNVGK |  |  | completely abolished | completely abolished | generally abolished | generally abolished | generally abolished | 
3 | OTU1-D89E (protein) MQNQIDMVKDEAEVAASISAIKGEEWGNCSSVEDQPSFQEEEAAKVPYVGDKEPLSSLAAEYQSGSPILLEKIKILDSQYIGIRRTRGEGNCFFRSFMFSYLEHILESQDRAEVDRIKVNVEKCRKTLQNLGYTDFTFEDFFALFLEQLDDILQGTEESISYDELVNRSRDQSVSDYIVMFFRFVTAGDIRTRADFFEPFITGLSNATVDQFCKSSVEPMGEESDHIHITALSDALGVAIRVVYLDRSSCDSGGVTVNHHDFVPVGITNEKDEEASAPFITLLYRPGHYDILYPKPSCKVSDNVGK |  |  | completely abolished | completely abolished | to a similar extent as the wild-type protein | to a similar extent as the wild-type protein | to a similar extent as the wild-type protein | 
4 | OTU1-H288R (protein) MQNQIDMVKDEAEVAASISAIKGEEWGNCSSVEDQPSFQEEEAAKVPYVGDKEPLSSLAAEYQSGSPILLEKIKILDSQYIGIRRTRGDGNCFFRSFMFSYLEHILESQDRAEVDRIKVNVEKCRKTLQNLGYTDFTFEDFFALFLEQLDDILQGTEESISYDELVNRSRDQSVSDYIVMFFRFVTAGDIRTRADFFEPFITGLSNATVDQFCKSSVEPMGEESDHIHITALSDALGVAIRVVYLDRSSCDSGGVTVNHHDFVPVGITNEKDEEASAPFITLLYRPGRYDILYPKPSCKVSDNVGK |  |  | completely abolished | completely abolished | generally abolished | generally abolished | generally abolished | 
5 | OTU9-NΔ 1-100 (protein) GQENQGEAIDITQESDILHNHNGNMEDKNVARIRFEGGQSSPSRDDDSVCSVEIEEESWSEVGKRLNQMIPIAHVPKINGELPSEDEQISDHERLFQRLQLYGLVENKIEGDGNCQFRSLSDQLYRSPEHHNFVREQVVNQLAYNREIYEGYVPMAYNDYLKAMKRNGEWGDHVTLQAAADLFGVRMFVITSFKDTCYIEILPHFQKSNRLICLSFWAEVHYNSIYPEGELPIPEGKKKKKYWVF | comparable to that catalyzed by the corresponding wild-type proteins | comparable to that catalyzed by the corresponding wild-type proteins |  |  |  |  |  | 
6 | OTU7a-C48S (protein) MAKTKQQKSKPKKQPHQKQGKDCDLSQFRAQLDALGLKIIQVTADGNSFFRAIADQLEGNEDEHNKYRNMIVLYIVKNREMFEPFIEDDVPFEDYCKTMDDDGTWAGNMELQAASLVTRSNICIHRNMSPRWYIRNFEDTRTRMIHLSYHDGEHYNSVRSKEDACGGPARPVVIEADAKVSAASKQAKATESKSKNKADKCHVNAGAIKVVMSGSCCDNTEKAEQVLLQVNGDVDAAIEFLIADQGMESLTENDTETASASDTINPKHASDSPMENTEQAREELIEEESASGNNSETVQAKCTTQTDDKKIPRNKTCPCGSKKKYKSCCGTATGRSSVKLLVSQTMESKKGRKNLRRGTSNEVEANAPDVGALCI |  |  | completely abolished | completely abolished |  |  |  | 
7 | OTU10-NΔ1-173 (protein) RLNQMVPIPYIPKINGEIPPEEEAVSDHERLRNRLEMFDFTEVKVPGDGNCQFRALADQLYKTADRHKHVRRQIVKQLKSRPDSYQGYVPMDFSDYLRKMSRSGEWGDHVTLQAAADAYRVKIVVLTSFKDTCYIEILPTSQESKGVIFLSFWAEVHYNAIYLNRDTSETELQRKRKWWRFGN | comparable to that catalyzed by the corresponding wild-type proteins | comparable to that catalyzed by the corresponding wild-type proteins |  |  |  |  |  | 
8 | His-tagged OTU3 (protein) MELKSSSNNNILEQLRNGFARFELVSSPTASVSDSISSTSLPASFISTTKGNSYVFFARINSSMNRSPAAKKVEKYAVDRVKGDGRCLFRALVKGMAFNKGITLNPQRERDDADELRMAVKEVICNDPKEREKYKEALVAITVDESLKRFCQRIGRHDFWGGESELLVLSKLCKQPIIVYIPEHEHGRGGGYGPGFIPIQEYGSEFRGGWGKGKTNKNVVRLLYSGRNHYDLLR |  |  |  |  |  |  |  | in vitro deubiquitylation activity [1]: ++; in vitro deubiquitylation activity [2]: +++; in vitro deubiquitylation activity [6]: ++; in vitro deubiquitylation activity [3]: +; in vitro deubiquitylation activity [4]: -; in vitro deubiquitylation activity [7]: +; in vitro deubiquitylation activity [5]: +; in vitro deubiquitylation activity [8]: -
9 | His-tagged OTU2 (protein) MEGIIVRRVIPSDNSCLFNAIGYVMDKDKNKAPELRQVIAAAVASNKEKYNEAFLGKLNEEYCAWILNPDKWGGAIELSILADYYGREIAAYDIQTSRCDLYGQTRNYDERVMLIYDGLHYDALALSPFEGAEEDFDMTIYPVGKDRSIGSIEGLALNLVKDQQRKRSYTDTANFTLRCGVCQIGVIGQKEAVEHAQATGHVNFQEYK |  |  |  |  |  |  |  | in vitro deubiquitylation activity [1]: +; in vitro deubiquitylation activity [2]: +; in vitro deubiquitylation activity [6]: -; in vitro deubiquitylation activity [3]: -; in vitro deubiquitylation activity [4]: -; in vitro deubiquitylation activity [7]: -; in vitro deubiquitylation activity [5]: -; in vitro deubiquitylation activity [8]: -
10 | OTU4c-NΔ (protein) SGLSRRHYTGFRVSVSNRPSSWHDKGLFGFAYTGVIVSLLVCYSSTSQSAYADSSRDKDANNVHHHSSDGKFHNGKRVYTDYSIIGIPGDGRCLFRSVAHGFCLRSGKLAPGEKMQRELADELRTRVADEFIQRRQETEWFVEGDFDTYVRQIRDPHVWGGEPELFMASHVLQMPITVYMKDDKAGGLISIAEYGQEYGKDDPIRVLYHGFGHYDALLLHESKASIPKSKL |  |  |  |  |  |  |  | catalytic activities [1]: did not modify; catalytic activities [2]: did not modify; catalytic activities [6]: did not modify; catalytic activities [3]: did not modify; catalytic activities [4]: did not modify; catalytic activities [7]: did not modify; catalytic activities [5]: did not modify
11 | OTU9-NΔ1-172 (protein) AHVPKINGELPSEDEQISDHERLFQRLQLYGLVENKIEGDGNCQFRSLSDQLYRSPEHHNFVREQVVNQLAYNREIYEGYVPMAYNDYLKAMKRNGEWGDHVTLQAAADLFGVRMFVITSFKDTCYIEILPHFQKSNRLICLSFWAEVHYNSIYPEGELPIPEGKKKKKYWVF | comparable to that catalyzed by the corresponding wild-type proteins | comparable to that catalyzed by the corresponding wild-type proteins |  |  |  |  |  | 
12 | GST-OTU4c-C136S (protein) MMICYSPITTCSRNAISIKRHLGSRLYGVVAHGSSKFSCYSLLSGLSRRHYTGFRVSVSNRPSSWHDKGLFGFAYTGVIVSLLVCYSSTSQSAYADSSRDKDANNVHHHSSDGKFHNGKRVYTDYSIIGIPGDGRSLFRSVAHGFCLRSGKLAPGEKMQRELADELRTRVADEFIQRRQETEWFVEGDFDTYVRQIRDPHVWGGEPELFMASHVLQMPITVYMKDDKAGGLISIAEYGQEYGKDDPIRVLYHGFGHYDALLLHESKASIPKSKL |  |  | completely abolished | completely abolished | generally abolished | generally abolished | generally abolished | fusion protein cleavage activity [6]: generally abolished; fusion protein cleavage activity [7]: generally abolished
